Legend:
[1] = molecular target: Recombinant human caspase-9 (active) (human) (UniProt P55211); experiment: enzyme inhibition assay (fluorogenic substrate cleavage); one unit of active recombinant human caspase incubated with various concentrations of peptide inhibitor in 100 mM NaCl, 50 mM HEPES, 10 mM DTT, 1 mM EDTA, 10% glycerol, 0.1% CHAPS, pH 7.4, 37°C, 30 min; then 200 μM substrate (Ac-DEVD-MCA for caspases-3 and -7, Ac-IETD-MCA for caspase-8, Ac-LEHD-MCA for caspase-9); apparent Ki = IC50/(1+[S]/Km)
[2] = molecular target: T1, substituted (S209A) active caspase-3 generated by coexpression of HA-p17 and HA-p12 (S209A) subunits (human) (UniProt P42574)
T1 sequence 1: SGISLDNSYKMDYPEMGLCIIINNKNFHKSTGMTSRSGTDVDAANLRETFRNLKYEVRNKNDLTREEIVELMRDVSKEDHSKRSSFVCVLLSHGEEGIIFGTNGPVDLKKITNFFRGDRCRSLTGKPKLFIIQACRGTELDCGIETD
T1 sequence 2: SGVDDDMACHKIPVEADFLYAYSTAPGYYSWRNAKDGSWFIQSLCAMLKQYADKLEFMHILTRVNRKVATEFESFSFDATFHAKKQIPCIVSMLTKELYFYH

Sequence of Recombinant human caspase-9 (active) (human) (P55211 whole entry): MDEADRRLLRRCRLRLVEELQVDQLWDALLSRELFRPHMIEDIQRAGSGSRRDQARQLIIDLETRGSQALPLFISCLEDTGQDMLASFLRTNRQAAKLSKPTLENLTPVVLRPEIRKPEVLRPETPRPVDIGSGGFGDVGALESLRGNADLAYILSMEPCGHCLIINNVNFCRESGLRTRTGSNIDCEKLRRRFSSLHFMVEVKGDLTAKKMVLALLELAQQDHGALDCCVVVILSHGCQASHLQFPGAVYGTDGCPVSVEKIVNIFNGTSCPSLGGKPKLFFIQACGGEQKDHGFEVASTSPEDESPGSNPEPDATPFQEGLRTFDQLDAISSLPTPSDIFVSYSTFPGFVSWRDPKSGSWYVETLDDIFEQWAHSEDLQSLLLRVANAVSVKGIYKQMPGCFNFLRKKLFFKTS

## Ac-DEVD-CHO (peptide)
[1]
  Ki: 1.35 nM

## Ac-DNLD-CHO (peptide)
[1]
  Ki: > 200 nM

## Ac-DNLD-MCA (peptide)
[2]
  cleavage of Ac-DNLD-MCA by in vitro translated S209A active caspase-3, against the wild type (% loss of cleavage activity): > 60

Reference: PMC1931592
